Tests used:
[1] = biological target: BBMV proteins (brush border membrane vesicles) from fall armyworm (FAW; Spodoptera frugiperda) larval midgut (Spodoptera frugiperda); assay: homologous competition: unlabeled Cry1Da against 0.5 nM 125I Cry1Da on FAW BBMVs
[2] = biological target: BBMV proteins (brush border membrane vesicles) from fall armyworm (FAW; Spodoptera frugiperda) larval midgut (Spodoptera frugiperda); assay: heterologous competition: unlabeled Cry1Ca against 0.5 nM 125I Cry1Da (competitor pair Cry1Da/BBMV) on FAW BBMVs; reflects no displacement at Cry1Da sites, not lack of Cry1Ca binding to BBMVs

Substance | IC50 [1] | IC50 [2]
Cry1Da (purified truncated Cry toxin) (from UniProt P19415 28-594) | 1.5 nM | 
Cry1Ca (purified truncated Cry toxin) (from UniProt P0A376 28-618) |  | > 1000 nM
